Reference: patent publication EP4223782A1 (dated 2023)

Legend:
[1] = molecular target: TGFβR2(-1) peptide … presented on HLA-DRA/HLA-DRB1*04:01 (human); assay: cell-based or functional assay
[2] = molecular target: T1, TGFβR2(-1) frameshift variant (deletion of one adenine in the 10-adenine microsatellite) peptide on … (human); assay: IFNγ ELISA after 16 h; transduced human CD4+ T cells with BSM cells pulsed with decreasing amounts of peptide; upper bound of the printed range; full-length, on cells
T1 peptide: VALMSAMTTSSSQKN

[3] = molecular target: T1, TGFβR2(-1) frameshift variant (deletion …); assay: IFNγ ELISA after 16 h; transduced human CD4+ T cells with BSM cells pulsed with decreasing amounts of peptide; lower bound of the printed range; full-length, on cells

B1: TCR1414_1 (TCR, V domains shown)
Valpha: KQEVTQIPAALSVPEGENLVLNCSFTDSAIYNLQWFRQDPGKGLTSLLLIQSSQREQTSGRLNASLDKSSGRSTLYIAASQPGDSATYLCAVKSGAGSYQLTFGKGTKLSVIP
Vbeta: NAGVMQNPRHLVRRRGQEARLRCSPMKGHSHVYWYRQLPEEGLKFMVYLQKENIIDESGMPKERFSAEFPKEGPSILRIQQVVRGDSAAYFCASSPFQETQYFGPGTRLLVL
- lowest peptide concentration recognized (IFNy ELISA, BSM cells loaded with different concentrations of peptide) [1]: 1 nM
- EC50 of peptide [2]: < 10 nM
- EC50 of peptide [3]: > 1 nM

B2: TCR1414_2 (TCR, V domains shown)
Valpha: GIQVEQSPPDLILQEGANSTLRCNFSDSVNNLQWFHQNPWGQLINLFYIPSGTKQNGRLSATTVATERYSLLYISSSQTTDSGVYFCAAPSGNTPLVFGKGTRLSVIA
Vbeta: DVKVTQSSRYLVKRTGEKVFLECVQDMDHENMFWYRQDPGLGLRLIYFSYDVKMKEKGDIPEGYSVSREKKERFSLILESASTNQTSMYLCASRVSGANVLTFGAGSRLTVL
- lowest peptide concentration recognized (IFNy ELISA, BSM cells loaded with different concentrations of peptide) [1]: 1 nM
- EC50 of peptide [2]: < 10 nM
- EC50 of peptide [3]: > 1 nM
